{"source": "patent US20140162951A1", "binders": {"B1": {"name": "soluble GFRα-3 IgG1-Fc fusion protein (Fc fusion, UniProt O60609 28-371, looked up, not shown: a dimerising Fc or GST)", "chain": "LAAGDPLPTESRLMNSCLQARRKCQADPTCSAAYHHLDSCTSSISTPLPSEEPSVPADCLEAAQQLRNSSLIGCMCHRRMKNQVACLDIYWTVHRARSLGNYELDVSPYEDTVTSKPWKMNLSKLNMLKPDSDLCLKFAMLCTLNDKCDRLRKAYGEACSGPHCQRHVCLRQLLTFFEKAAEPHAQGLLLCPCAPNDRGCGERRRNTIAPNCALPPVAPNCLELRRLCFSDPLCRSRLVDFQTHCHPMDILGTCATEQSRCLRAYLGLIGTAMTPNFVSNVNTSVALSCTCRGSGNLQEECEMLEGFFSHNPCLTEAIAAKMRFHSQLFSQDWPHPTFAVMAHQ"}}, "target": "recombinant enovin (mature human enovin with NH2-terminal 6xHis tag, expressed from hEVNmat/pRSETB in E. coli) (human)", "assay": "SPR (BIAcore 3000), enovin immobilized, soluble GFRα3-Fc at three concentrations", "data": [{"binder": "B1", "values": [{"measurement": "Kd", "result": 3.1, "unit": "nM"}, {"measurement": "koff", "result": 0.000508, "unit": "s⁻¹"}, {"measurement": "kon", "result": 165000, "unit": "M⁻¹ s⁻¹"}]}]}
